Source: US6046014

Experiments:
[1] = target: streptavidin-agarose (immobilized streptavidin) (Streptomyces avidinii) (UniProt P22629); test: affinity chromatography: ammonium sulfate fraction passed over streptavidin-agarose
[2] = target: streptavidin-agarose (immobilized streptavidin) (Streptomyces avidinii) (UniProt P22629); test: affinity chromatography on streptavidin-agarose

“Strep-tagged oat phytochrome A (ASPHYA-ST)” was tested, and the efficiency of binding [1] was 86% and the binding capacity (µg ASPHYA-ST per milliliter bed volume) [2] was 200.
